What is called EC50 is the midpoint of the concentration-response curve. What is called Kd is the constant that tells how readily two partners part at equilibrium. Usually koff stands for the first-order rate constant of dissociation. For orientation: kon means the second-order rate constant of association.

Test [1] has as its target T1, 自产IL-4Rα重组蛋白 (in-house human recombinant IL-4Rα, residues 26-232 of NP_000409.1, expressed in 293F cells) (human, UniProt P24394 26-232).
T1 construct: range 26-232; Cloned into pcDNA3.4 and expressed in 293F cells; The construct itself is defined on NP_000409.1; also called RJK; 人源重组IL-4Rα蛋白
T1 sequence (looked up): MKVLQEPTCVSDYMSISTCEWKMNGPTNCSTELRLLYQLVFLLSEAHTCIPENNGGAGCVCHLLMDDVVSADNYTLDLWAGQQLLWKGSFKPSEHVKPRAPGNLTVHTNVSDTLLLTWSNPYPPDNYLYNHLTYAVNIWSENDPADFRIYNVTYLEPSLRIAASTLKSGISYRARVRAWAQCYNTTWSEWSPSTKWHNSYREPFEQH
The experiment in a line: binding ELISA of purified VHH on IL-4Rα recombinant protein. Background: An ELISA detects its analyte on a solid surface through an enzyme-linked reagent.

The target in test [2] is T1, 自产IL-4Rα重组蛋白 (in-house human …). Briefly: BLI (Octet RED96), IL-4Rα loaded on the sensor, antibody in solution from 100 nM in 2-fold dilutions. For orientation: BLI is a label-free optical method that tracks binding on a fibre tip over time.

B1: 单域抗体 1A9 (VHH)
VHH 1: QVPLQQSGPELVKPGASVKISCKASGYAFSSSWMNWVKQRPGKGLEWIGRIYPGDGDTKYNGKFKGKATLTADKSSSTAYMQLSSLTSEDSAVYFCARDDYDEASWGQGTLVTVSA
VHH 2: DIVMTQSQKFMSTSVGDRVSITCKASQNVRSAVAWYQQKPGQSPKSLIYLASNRHTGVPDRFTGSGSGTDFTLTISNVQSEDLADYFCLQHWNYPFTFGSGTKLEIK
As for B1, the EC50 in test [1] came to 2.72 nM.

B2: 单域抗体 4E9 (VHH)
VHH: QVQLVESGGGSVQAGGSLRLSCAASGDFYCMAWFRQAPGKEREGVATIRSGGRSTYYADSVKGRFTISKDNAKDTLYLQMNSLKPEDTAMYYCAVGVDGNCRNYWGQGTQVTVSS
Regarding B2, in test [2], the Kd came to 0.239 nM, the koff came out at 0.000133 s⁻¹ and the kon is 556000 M⁻¹ s⁻¹. Further, in test [1], the EC50 was 2.13 nM.

Source of the values: patent publication CN111690066A (NANJING RONGJIEKANG BIOTECHNOLOGY CO LTD, dated 2020).
